*1 amine or outer side, *2 acyl side, *3 side chain or, on linkers, in order; H or OH if unused. Where a SMILES comes first, the peptide text is derived from it. Bridges are numbered along the chain shown (N, C = ends). [ ]: non-standard residue; d: D form. X2 = C=C(N[*:2])c1nc(-c2nc(-c3nc(C(=O)OC)cs3)ccc2C(=O)[*:1])cs1; Nle = CCCC[C@H](N)C(=O)O; Dha = C=C(N)C(=O)O
Assays:
[1] = target: T1, TLR10 (Homo sapiens, UniProt Q9BXR5); experiment: mRNA display affinity selection against TLR10, NGS abundance; format: binding; parameters: Chimera protein (extracellular domain, amino acid 20-576;); Fc (chimera); purchased R&D system #6619-TR-050; conditions: TLR10 selection, NGS abundance rank; for rank in pulldown(+): –: not found in the final pulldown(+) libraries at the sequenced depth
T1 sequence (Q9BXR5 20-576): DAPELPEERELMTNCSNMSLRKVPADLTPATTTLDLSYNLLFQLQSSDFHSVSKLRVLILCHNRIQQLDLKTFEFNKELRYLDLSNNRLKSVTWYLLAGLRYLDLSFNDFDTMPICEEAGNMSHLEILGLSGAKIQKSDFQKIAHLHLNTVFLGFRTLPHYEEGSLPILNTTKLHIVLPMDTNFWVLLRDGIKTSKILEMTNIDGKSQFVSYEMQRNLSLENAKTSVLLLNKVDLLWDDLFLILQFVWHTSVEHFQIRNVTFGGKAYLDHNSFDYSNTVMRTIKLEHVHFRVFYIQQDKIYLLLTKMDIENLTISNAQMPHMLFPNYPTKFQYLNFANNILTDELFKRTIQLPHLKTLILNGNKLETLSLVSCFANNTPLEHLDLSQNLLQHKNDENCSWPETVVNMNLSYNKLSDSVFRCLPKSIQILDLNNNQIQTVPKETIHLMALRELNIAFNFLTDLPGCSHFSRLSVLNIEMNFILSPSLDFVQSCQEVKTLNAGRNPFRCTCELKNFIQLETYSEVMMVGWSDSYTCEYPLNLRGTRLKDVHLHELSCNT

[2] = Serum stability assay; format: in vitro ADME; conditions: pH 7.6; human serum, 37 °C, LC/MS; read-out: serum stability τ1/2 (converted)
Procedure: Next, we tested the metabolic stability of the discovered thiopeptides. The compounds were incubated in human serum at 37 °C in the presence of an internal control, and the amounts of the remaining analytes were quantified by LC/MS (Figures S27 and 28). […] At the other extreme, IR11 rapidly degraded in human serum with τ1/2 = 0.5 h. […]
Kinetic parameters and affinities of the […]
2.12. Thiopeptide metabolic stability experiments
The mixtures were stirred
well and transferred to a 37 °C thermostat. […]

[3] = target: T1, TLR10; experiment: Single-round mRNA display binding assay (qPCR), TLR10; conditions: ratio of cDNA recoveries (qPCR), TLR10 pulldown over beads only, single-round selection
[4] = target: T2, IRAK4 (Homo sapiens, UniProt Q9NWZ3); experiment: mRNA display affinity selection against IRAK4, NGS abundance; format: binding; parameters: acids 1-460; NP_057207.2) was purchased from Carna Biosciences; purchased Carna Biosciences (Kobe, Japan); conditions: Top100 selection hits, NGS
T2 sequence (Q9NWZ3 1-460): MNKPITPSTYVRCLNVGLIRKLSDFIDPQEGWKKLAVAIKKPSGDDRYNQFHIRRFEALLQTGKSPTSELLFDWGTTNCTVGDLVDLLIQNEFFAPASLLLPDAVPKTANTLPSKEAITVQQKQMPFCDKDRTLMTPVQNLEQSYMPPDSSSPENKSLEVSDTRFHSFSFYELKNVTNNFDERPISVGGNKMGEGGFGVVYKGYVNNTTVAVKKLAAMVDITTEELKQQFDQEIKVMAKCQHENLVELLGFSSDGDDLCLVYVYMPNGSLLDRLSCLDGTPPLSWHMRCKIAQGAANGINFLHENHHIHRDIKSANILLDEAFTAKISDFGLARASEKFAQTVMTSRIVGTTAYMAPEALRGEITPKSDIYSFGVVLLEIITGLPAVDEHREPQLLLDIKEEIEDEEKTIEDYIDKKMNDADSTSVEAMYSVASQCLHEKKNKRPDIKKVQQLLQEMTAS

Library fraction ([4]; IRAK4 selection pulldown (+))	Raw reads ([4]; IRAK4 selection pulldown (+))	Library fraction ([4]; IRAK4 selection pulldown (-))	Raw reads ([4]; IRAK4 selection pulldown (-))	Compound	rank in pulldown(–) [1]	rank in pulldown(+) [1]	half-life at 10 µM [2] [h]	display P/N ratio [3]
				C=C1NC(=O)[C@H](Cc2c[nH]c3ccccc23)NC(=O)CNC(=O)[C@H](C(C)C)NC(=O)[C@H](CC(N)=O)NC(=O)CNC(=O)CNC(=O)[C@H](Cc2ccc(O)cc2)NC(=O)[C@@H]2CCCN2C(=O)[C@H](CC(N)=O)NC(=O)[C@H]([C@@H](C)O)NC(=O)[C@H](Cc2c[nH]c3ccccc23)NC(=O)c2ccc(-c3nc(C(=O)OC)cs3)nc2-c2csc1n2 [TL1] (HELM PEPTIDE1{W.T.N.P.Y.G.G.N.V.G.W}|CHEM1{[C=C(N[*:2])c1nc(-c2nc(-c3nc(C(=O)OC)cs3)ccc2C(=O)[*:1])cs1]}$PEPTIDE1,CHEM1,1:R1-1:R1|PEPTIDE1,CHEM1,11:R2-1:R2$$$V2.0; bridges inferred)	1	3	4.6 ± 0.3	127
				C=C1NC(=O)[C@H]([C@@H](C)CC)NC(=O)[C@H](CO)NC(=O)[C@H](CC(=O)O)NC(=O)[C@H](CCCNC(=N)N)NC(=O)[C@H](C)NC(=O)[C@H](CCCC)NC(=O)C(=C)NC(=O)CNC(=O)[C@@H]2CCCN2C(=O)[C@H](Cc2c[nH]c3ccccc23)NC(=O)c2ccc(-c3nc(C(=O)OC)cs3)nc2-c2csc(n2)C(=C)NC1=O [TL18] (WPG[Dha][Nle]ARDSI[Dha]; linker N-C via X2)	10	13	2.5 ± 0.1	380
				C=C1NC(=O)[C@H](Cc2ccc(O)cc2)NC(=O)[C@H](C)NC(=O)[C@H](C(C)C)NC(=O)[C@H](CCCCN)NC(=O)CNC(=O)[C@H](CC(C)C)NC(=O)[C@H](CCCNC(=N)N)NC(=O)[C@@H]2CCCN2C(=O)[C@H](Cc2ccccc2)NC(=O)[C@H](CCCC)NC(=O)[C@H](CCCC)NC(=O)[C@H]([C@@H](C)O)NC(=O)[C@H](Cc2c[nH]c3ccccc23)NC(=O)c2ccc(-c3nc(C(=O)OC)cs3)nc2-c2csc1n2 [TL9] (HELM PEPTIDE1{W.T.[Nle].[Nle].F.P.R.L.G.K.V.A.Y}|CHEM1{[C=C(N[*:2])c1nc(-c2nc(-c3nc(C(=O)OC)cs3)ccc2C(=O)[*:1])cs1]}$PEPTIDE1,CHEM1,1:R1-1:R1|PEPTIDE1,CHEM1,13:R2-1:R2$$$V2.0)	37	22	1.7 ± 0.1	235
				C=C1NC(=O)CNC(=O)[C@H]([C@@H](C)CC)NC(=O)[C@H]([C@@H](C)CC)NC(=O)CNC(=O)[C@H](CCC(N)=O)NC(=O)CNC(=O)[C@H](CCCC(N)=O)NC(=O)[C@H](Cc2c[nH]c3ccccc23)NC(=O)[C@H](C(C)C)NC(=O)[C@H]([C@@H](C)CC)NC(=O)[C@H](CC(N)=O)NC(=O)[C@H](CO)NC(=O)[C@H](Cc2c[nH]c3ccccc23)NC(=O)c2ccc(-c3nc(C(=O)OC)cs3)nc2-c2csc1n2 [TL10] (HELM PEPTIDE1{W.S.N.I.V.W.[O=C([C@H](CCCC(=O)[*:3])N[*:1])[*:2]].G.Q.G.I.I.G}|PEPTIDE2{[am]}|CHEM1{[C=C(N[*:2])c1nc(-c2nc(-c3nc(C(=O)OC)cs3)ccc2C(=O)[*:1])cs1]}$PEPTIDE1,PEPTIDE2,7:R3-1:R1|PEPTIDE1,CHEM1,1:R1-1:R1|PEPTIDE1,CHEM1,13:R2-1:R2$$$V2.0; bridges inferred)	4	1	4.7 ± 0.3	352
0.0001	8	0.00011	15	RQRWRGRKYH				
0.0002	19			SLLWHRRIYC				
0.0008	85	0.00051	68	AQRWRRRCYH				
0.003	323	0.00136	181	TMLWKRRIHA				
		0.00026	35	TMRWKRRNWA				
		0.00037	50	SMKRQLITWHWT				
0.0046	492	0.007	903	SVRWKRRDYR				
0.002	228	0.00048	64	SIFWRRRIYK				
0.0001	12	0.00025	33	TQRYLSKNYK				
0.0003	29	0.00014	19	TQRWNNRNWC				
0.0006	68	0.00032	43	TQRWKHRLYK				
		7e-5	10	GMKRQFITWHWT				
		0.00109	145	SMQRKTIHWKWT				

Library fraction ([4]; IRAK4 selection pulldown (+))	Raw reads ([4]; IRAK4 selection pulldown (+))	Library fraction ([4]; IRAK4 selection pulldown (-))	Raw reads ([4]; IRAK4 selection pulldown (-))	Compound	rank in pulldown(–) [1]	rank in pulldown(+) [1]	half-life at 10 µM [2] [h]	display P/N ratio [3]
0.0001	9			AQYWKRRLWR				
0.0002	26	7e-5	10	TQFWKRRNYA				
0.0009	95	0.00044	59	RILWRRRRYH				
0.0002	17			SMLWKRRICI				
0.0001	14			AMRWRNRCYK				
0.026	2745	0.018	2408	TLCWKRRTWK				
0.0017	182	0.0012	160	SQRYKQRCYK				
0.0001	12			TQRWKCRLYR				
		8e-5	11	RLLWKHRLYA				
0.080	8519	0.046	6174	SLLWRRRVYK				
		7e-5	10	SMKRKFITWHWT				
0.0003	29	0.00012	16	SVRWKHRIYK				
0.0001	16	7e-5	10	SMLWRRRKYA				
0.004	433	0.003	390	STRWKNRIYR				
0.0026	283	0.00072	96	SLYWKSRIWR				
0.0001	9			TQRWKQKNWS				
0.0001	9			SQLYKRRIWM				
